From US10078082B2, “Detection of free and protein-bound non-human gal-alpha(1-3)-gal epitope” (National University of Ireland, Galway, priority 2012, dated 2018)
Values joined by “and” are separate entries in the source; they are usually repeats but may differ in a detail not shown here. Equal values may be shown once.

Legend:
[1] = scFv-based competitive ELISA, free Gal-α-(1→3)-Gal as standard, immobilized Gal-α-(1→3)-Gal-BSA; type: binding; settings: for ED50: free Gal-α-(1→3)-Gal disaccharide standard, plates coated with Gal-α-(1→3)-Gal-BSA 10 μg/ml, FIG. 6
Experimental: FIG. 6: Standard curves for competitive ELISA given by scFv clones G12, A4, and A11. Plates were coated with immobilized Gal-α-(1→3)-Gal-BSA [10 μg/ml] and incubated with 2.5 μg/ml of the scFvs in the presence of an increasing concentrations of free Gal-α-(1→3)-Gal. The error bars indicate the standard error of the mean of triplicate determinations. Each scFv was evaluated in a competitive ELISA format using free Gal-α-(1,3)-Gal as standard. Microtitre plate wells were coated and blocked as previously described. Standard solutions were prepared in PBS (pH 7.2), ranging in concentration from 2 μg/ml (5.84 μM) to 20 mg/ml (58.4 mM). For the assay, 50 μl of each standard and buffer blank were added to designated wells in triplicate, followed by 50 μl of a sub-saturating concentration (1 μg/ml) of the appropriate scFv, giving a final standard concentration in the assay of 1 μg/ml (2.92 μM) to 10 mg/ml (29.2 mM). The plate was incubated for 1 hour at 37° C. with shaking After washing, bound scFv was detected as previously described. The ratios of the OD for each standard versus the OD given by the blank (B/Bo) were plotted versus standard concentration and standard curve plotted using SigmaPlot (v11, Systat Software Inc). The detection limits were determined as the concentration corresponding to the mean response for zero standard minus three times the standard deviation (SD). Inhibition of scFv by a panel of free sugars. scFv binding to Gal-α-(1→3)-Gal-BSA was determined against a panel of 21 free form sugars; D-Cellibiose, Melibiose, D-Raffinose, Lactulose, Palatinose, β-Gentibiose, D+ Trehalose, D+ Turanose, L− Fructose, D+ Glucose, Sucrose, Galacto-N-biose, 4β-Galactobiose, gal-α(1-3)-gal-β-(1-4)-gal, gal-α(1-3)-gal-β-(1-4)-glc, gal-α(1-3)-gal-β-(1-4)-gal-all-3)-gal, Laminarbiose, β1-4-D-Xylobiose, N-Acetyl-D-glucoseamine (GlcNAc), Galactose, N-Acetyl-D-lactosamine (LacNAc), (sourced from Sigma Aldrich and Dextra, UK). Inhibitions were performed by serial dilutions of free sugars and a sub-saturating concentration scFv added to each dilution and pre-incubated for 60 minutes at 37° C., prior to performing ELISA against Gal-α-(1→3)-Gal-BSA as used throughout. The percent binding of the scFv was plotted against the […], and the 50% effective dose determined (ED50; dose of free sugar causing 50% displacement of the scFv).

[2] = NGC microarray specificity analysis (over 50 structures); type: binding; settings: FIG. 8
Excerpt: FIG. 8: Comparison of the specificity of selected scFv fragments A4, A11 and G12 against a panel of related NGCs compared directly to the specificity binding pattern of the lectin GS-1-B4, considered as highly specific for α-Gal residues.
The spectacular specificity of the scFvs has also been determined by analysis on an NGC microarray containing over 50 different structures. […] ScFv-based competitive ELISA. Competitive ELISAs were established with each of the three scFvs examined using as standard the free Gal-α-(1→3)-Gal disaccharide within the concentration range 0.001 to 10000 μg/ml (2.93 nM to 29.3 mM). […] A panel of 21 related sugars were tested in the scFv-based competitive assays (Table 1). […] All three scFvs were more reactive to the disaccharide than Gal-α-(1,3)-Gal-containing trisaccharides, as shown by lower inhibitory activity of the trisaccharides and supporting the results obtained in the direct ELISA.

[3] = Near UV circular dichroism interaction study with disaccharides; type: binding; settings: pH 7.2, 20° C.
Experimental: The scFvs A4, A11 and G12 were used to check their interaction with Galα(1,3)Galβ1-OMe (Carbosynth) and with melibiose, the latter as negative control.
(§1) Two types of experiments were performed: firstly, the near UV circular dichroism (CD) spectra of the scFvs in the absence and presence of 4 mM of both disaccharides have been compared. Secondly, the effect of the disaccharides on the thermal stability of the scFvs has been studied.
(§2) Samples were diluted in NaPi (10 mM)-NaCl (150 mM) pH 7.2 and either concentrated by ultrafiltration twice (for small amounts) or exhaustively dialyzed. CD spectra were acquired at 20° C. in a J-810 spectropolarimeter, equipped with a Peltier temperature control system, using a bandwidth of 1 nm, a scan rate of 20 nm/min and a response time of 4 s, collecting data every 0.2 nm and 3 accumulations for each spectrum. Near-UV spectra were registered at around 1.0 mg ml^−1 protein concentration in 1-cm path-length cells while far-UV spectra were recorded in 0.1 cm path-length quartz cells at a protein concentration of around 0.2 mg ml^−1. For all CD spectra, the corresponding buffer baseline was subtracted. Thermal stability was evaluated by measuring ellipticity changes at 208 nm while increasing temperature from 20 to 90° C., with a constant rate of 40° C./h. Ellipticity changes were collected every 0.2° C. and spectra were collected every 10° C. The thermal denaturation profiles were fitted to a sigmoidal function using the equation:—

[4] = Thermal denaturation monitored by far UV CD ellipticity; type: physicochemical; settings: for HD / Tm: λ 208
Experimental: as §1
as §2, with “Thermal stability was evaluated by measuring ellipticity changes at 208 nm while increasing temperature from 20 to 90° C., with a constant rate of 40° C./h.” left out
where Θ(T) represents the ellipticity at temperature T (Kelvin), ΘN the ellipticity of the native protein, n the number of transitions, ΔΘ1 the ellipticity increment of transition i, R the gas constant and Tmi and HDi the temperature at the transition midpoint (melting temperature) and the parameter which describes the cooperativity (slope) of the corresponding transition, respectively.
In the second set of experiments, the thermal stability of the scFvs in the absence and presence of the disaccharides was investigated. With this type of experiment, we were able to get: 1) the far UV CD spectra at increasing temperatures, which gave information on changes in the secondary structure of the proteins upon heating and 2) the profile of the change in ellipticity at a certain wavelength, also with increasing temperatures, that allowed the calculation of the temperature of transition (Tm). Direct comparison of the Tm in the absence and presence of sugar provided information about the effect of the sugar on the scFvs, a thermal stabilisation (i.e. an increase in the Tm in the presence of the sugar) being indicative of interaction.

[5] = 4 mM melibiose (negative control)
[6] = in the presence of 4 mM Galα(1,3)Galβ1-OMe, 208 nm

B1: scFv A11: chicken anti-Gal-α-(1→3)-Gal single chain antibody fragment, Seq Id No. 4; clone D9 has the same sequence (protein)
scFv: QAALTQPSSVSANPGETVKITCSGGGSYGGSYYYGWYQQKSPGSAPVTVIYSNDNRPSDIPSRFSGSTSGSTSTLTITGVQVDDEAVYYCGTYDSSYVGIFGAGTALTVLGQSSRSSGGGSSGGGGSAVTLDESGGGLQTPGGGLSLVCKASGFTFSSYSMQWVRQTPGKGLEFVAGIGYSDSYTYFGPAVKGRATISRDNGQNTVRLQLNNLRAEDTATYYCARSADTIYGCTHPWCSADNIDAWGHGTEVIVSSTSGQAGQ
modifications: Synthetic protein sequence forscFv-A11 antibody fragment for detecting non-human Gal-alpha(1-3)-Gal
- ED50 ([1]; listed as A11): 1225 μg/ml and 3.58 mM
- Specificity for the Gal-α-(1→3)-Gal epitope compared with GS-1-B4 [2]: much higher specificity
- Change of near UV CD spectrum ([3]; 4 mM Galα(1,3)Galβ1-OMe): No significant changes were observed
- Change of near UV CD spectrum [3, 5]: No significant changes were observed
- HD ([4]; +4 mM Galα(1,3)Galβ1-OMe): 95 ± 6 kcal/mol
- Tm ([4]; +4 mM Galα(1,3)Galβ1-OMe): 69.0 ± 0.2 °C
- HD ([4]; +4 mM melibiose): 141 ± 7 kcal/mol
- Tm ([4]; +4 mM melibiose): 61.1 ± 0.1 °C
- HD ([4]; Pure scFv): 134 ± 7 kcal/mol
- Tm ([4]; Pure scFv): 61.3 ± 0.1 °C
- Change in cooperativity (HD) [4, 6]: ~38.5 kcal/mol
- Stabilisation (increase in Tm) [4, 6]: 7.7 °C

B2: scFv A4: chicken anti-Gal-α-(1→3)-Gal single chain antibody fragment, Seq Id No. 2 (protein)
scFv: QAALTQPSSVSTNPGGTVKITCSGGNGNYGWYQQKSPGSAPVTVIYSNNKRPSDIPSRFSGSKSGSTATLTITGVQVDDEAVYFCGAYDNTYVGVFGAGTTLTVLGQSSRSSSGGGSSGGGGSAVTLDESGGGLQTPGGGLSLVCKASGFTFSSYSMQWVRQTPGKGLEFVAGIGYSDSYTYFGPAVKGRATISRDNGQNTVRLQLNNLRAEDTATYYCARSADTIYGCTHPWCSADNIDAWGHGTEVIVSSTSGQAGQ
modifications: Synthetic protein sequence for scFv-A4 antibody fragment for detecting non-human Gal-alpha(1-3)-Gal
- ED50, composite standard curve ([1]; composite curve from 9 independent runs, FIG. 7, listed as A4): 327 μg/ml and 0.95 mM
- ED50 ([1]; listed as A4): 311 μg/ml and 0.91 mM
- Specificity for the Gal-α-(1→3)-Gal epitope compared with GS-1-B4 [2]: much higher specificity
- Change of near UV CD spectrum ([3]; 4 mM Galα(1,3)Galβ1-OMe): molar ellipticity per residue in general decreased
- Change of near UV CD spectrum [3, 5]: remained unchanged
- HD ([4]; +4 mM Galα(1,3)Galβ1-OMe): 52 ± 3 kcal/mol
- Tm ([4]; +4 mM Galα(1,3)Galβ1-OMe): 74.8 ± 0.3 °C
- HD ([4]; Pure scFv): 57 ± 3 kcal/mol
- Tm ([4]; Pure scFv): 64.6 ± 0.2 °C
- Change in cooperativity (HD) [4, 6]: ~4.7 kcal/mol
